Assay results published in paper doi:10.1101/2020.12.31.425005 (bioRxiv, 2020).

Molecular target: the molecule itself
Test: crystal structure

B1: Haemophilus ducreyi I51M-L72M-YhcB cytosolic region, residues 31-128 (domain or fragment)
chain: MKGNIQQQIQLKSELASAEAKMEEQKQQLERHFEQSANLLENMAEDYKKLYTHFAQNSEQLLPESNQVEFFKRLKNHANGDEDNQPRDYSDGSSGLLKS
modifications: selenomethionine-labeled (Met-51, Met-72)
  stoichiometry N: 4
